Data reported in the DeepSol protein solubility set.

Assay: soluble on expression in E. coli; label from the status in PepcDB or PDB records

Sequence	soluble on expression in E. coli
MAPVLSKDVADIESILALNPRTQSHAALHSTLAKKLDKKHWKRNPDKNCFHCEKLENNFDDIKHTTLGERGALREAMRCLKCADAPCQKSCPTHLDIKSFITSISNKNYYGAAKMIFSDNPLGLTCGMVCPTSDLCVGGCNLYATEEGSINIGGLQQFASEVFKAMNIPQIRNPCLPSQEKMPEAYSAKIALLGAGPASISCASFLARLGYSDITIFEKQEYVGGLSTSEIPQFRLPYDVVNFEIELMKDLGVKIICGKSLSENEITLNTLKEEGYKAAFIGIGLPEPKTDDIFQGLTQDQGFYTSKDFLPLVAKSSKAGMCACHSPLPSIRGAVIVLGAGDTAFDCATSALRCGARRVFLVFRKGFVNIRAVPEEVELAKEEKCEFLPFLSPRKVIVKGGRIVAVQFVRTEQDETGKWNEDEDQIVHLKADVVISAFGSVLRDPKVKEALSPIKFNRWDLPEVDPETMQTSEPWVFAGGDIVGMANTTVESVNDGKQASWYIHKYIQAQYGASVSAKPELPLFYTPVDLVDISVEMAGLKFINPFGLASAAPTTSSSMIRRAFEAGWGFALTKTFSLDKDIVTNVSPRIVRGTTSGPMYGPGQSSFLNIELISEKTAAYWCQSVTELKADFPDNIVIASIMCSYNKNDWMELSRKAEASGADALELNLSAPHGMGERGMGLACGQDPELVRNICRWVRQAVQIPFFAKLTPNVTDIVSIARAAKEGGADGVTATNTVSGLMGLKADGTPWPAVGAGKRTTYGGVSGTAIRPIALRAVTTIARALPGFPILATGGIDSAESGLQFLHSGASVLQVCSAVQNQDFTVIQDYCTGLKALLYLKSIEELQGWDGQSPGTESHQKGKPVPRIAELMGKKLPNFGPYLEQRKKIIAEEKMRLKEQNAAFPPLERKPFIPKKPIPAIKDVIGKALQYLGTFGELSNIEQVVAVIDEEMCINCGKCYMTCNDSGYQAIQFDPETHLPTVTDTCTGCTLCLSVCPIIDCIRMVSRTTPYEPKRGLPLAVNPVC	soluble
MGSDKIHHHHHHMKHTQISRREFLKNIGMTGAGVLLAASPWLSAFSEAVNTSNEKCRLGVIGPGSRGRFLMSFLVQNPKVDIVALCDIYQPSIDEALKLAPKAKVYGDYRELLENNNIDAILVATPLSSHCKIVMDAFDAGKHVFCEKTIGFTMEECFRMYNKHRSTGKIFFTGQQRLFDPRYIKAMEMIHAGTFGEINAIRTFWYRNGDWRRPVPSANLERQINWRLYKEYSKGLMTELACHQLQIGSWALNKLPEKVMGHGAITYWKDGREVYDNVSCLYVFDDGVKMTFDSVISNQFYGLEEQIMGNLGTVEPEKGKYYFESIPPAPGFLQMINDWENKLFDTLPFAGTSWAPETANENKGELILGERPKSDGTSLLLEAFVEAVITRKQPARIAEEGYYASMLCLLGHQALQEEKTLYFPDEYKINYLNHQSKTSEAV	not soluble
QSLVKDFLSGVFMLIEDQYGVGDTIDVGDVVGTVEDVSLRLTTLRDINGTQWFVRNGEILRVGNFSQEYAVAIINVPIALDEKASDAIALIEKSVADEAQLQEVADVLLDDPVVDGVNSVGLDHMVIRTRVTTLPDQQWFIERKMRARILTDLQRNGIDTPYPEGIGAYRRLDDEE	not soluble
MGSDKIHHHHHHMSILGLFGCDNGRNIAIICKNNPEICADLHKDSWCLAEKTQLIRDRYTLKDTTHPTGKQLYLQLTYLEDYSRCIELAAGVQHIIHTSRTADRARAFRLSTENLTQLQEQTRERQDPFMSYYQWTRFGDTQALNRLLEHENAGEVTDPFLLAQIATYYSNRDAIKSQQLYLKVLSEIQYDDFDVNWLLGLASTFRHTQQFDKTYMLTKANLLLTQQKYSEDKMLALLSNNKTLAAKLDKYAQTLIDALKNGNYSTSSVRKWLEPAPQILPAETITTEPVPEK	not soluble
MSLYHYFRPAQRSVFGDLMRDMAQMERQFTPVCRGSPSESSEIVNNDQKFAINLNVSQFKPEDLKINLDGHTLSIQGEQELKTEHGYSKKSFSRVILLPEDVDVGAVASNLSEDGKLSIEAPKKEAIQGRSIPIQQAPVEQKTSE	not soluble
QTGGSFYEPFNNYNTGLWQKADGYSNGNMFNCTWRANNVSMTSLGEMRLSLTSPSYNKFDCGENRSVQTYGYGLYEVNMKPAKNVGIVSSFFTYTGPTDGTPWDEIDIEFLGKDTTKVQFNYYTNGVGNHEKIVNLGFDAANSYHTYAFDWQPNSIKWYVDGQLKHTATTQIPQTPGKIMMNLWNGAGVDEWLGSYNGVTPLYAHYNWVRYTKR	soluble
MSLYKDDSLTLHTDLYQINMMQVYFEQGIHNRHAVFEVYFRKEPFNNGYAVFAGLQRMVEYLEQFQFSETDLAYLEELGYPENFLTYLKELRLELTIRSAKEGDLVFANEPIVQVEGPLGQCQLVETALLNIVNFQTLIATKAARIRSVIEDEPLLEFGTRRAQELDAAIWGTRAAMIGGADATSNVRAGKRFDIPVSGTHAHALVQAYGNDYDAFMAYAKTHKDCVFLVDTYDTLKVGVPTAIRVAKEMGDKINFLGVRLDSGDLAYLSKTVRQQLDDAGFTEAKIYASNDLDENTILNLKMQKAKIDVWGVGTKLITAYDQPALGAVYKIVSIEQEDGSMRDTIKLSNNAEKVSTPGKKQVWRITSREKGKSEGDYITFTDINVNELTEIEMFHPTYTYIKKTVKEFDAIPLLVDIFVKGELVYQLPTLAEIKAYAKKEFDKLWDEYKRVLNPQDYPVDLARDVWQNKMALIDNIRKDAYGKSEEGHHHHHH	soluble
MSQLCPCGSAVEYSLCCHPYVSGEKVAPDPEHLMRSRYCAFVMQDADYLIKTWHPSCGAAALRAELMAGFAHTEWLGLTVFEHCWQDADNIGFVSFVARFTEGGKTGAIIERSRFLKENGQWYYIDGTRPQFGRNDPCPCGSGKKFKKCCGQ	not soluble
GGYSSEQQEDLEAIAPAVVQALQRKKAEEALRLSNIYNRSLIESSLDPLVTIGRDGKITDVNCATEQVTGYPRNDLIKTDFSDYFTEPENARAGYKQVFTDGEVRDYPLEIQHKDGHITPVLYNASVYRDEN	not soluble
VTDVLLCVGNSMMGDDGAGPLLAEKCAAAPKGNWVVIDGGSAPENDIVAIRELRPTRLLIVDATDMGLNPGEIRIIDPDDIAEMFMMTTHNMPLNYLIDQLKEDIGEVIFLGIQPDIVGFYYPMTQPIKDAVETVYQRLEGWEGNGGFAQLAVEEE	soluble
MGSDKIHHHHHHMKHKIVEVKNVLACLELMENLQGRSSITPGIGLIHGPSGFGKTTTLCWLINQLGAMNAIYVRCYATDTPSSFLARIMEELGSEMLYPMRKSVDFIVDRMNERQLPLFIDEADHIVGQSKIMETIRDLYDATEQPVVLVGMEEIARRISHRKQLFNRVSEWVEFQPADLSDVHSFAAELLDDRITVADDLLEHIRKRSGGEVRRILTALEKIERSAIANDMDIVTLDNWGDQPLFLEFRR	not soluble
MTNFKDNDGDGTKLHVVMFPWLAFGHMVPYLELSKLIAQKGHKVSFISTPRNIDRLLPWLPENLSSVINFVKLSLPVGDNKLPEDGEATTDVPFELIPYLKIAYDGLKVPVTEFLESSKPDWVLQDFAGFWLPPISRRLGIKTGFFSAFNGATLGILKPPGFEEYRTSPADFMKPPKWVPFETSVAFKLFECRFIFKGFMAETTEGNVPDIHRVGGVIDGCDVIFVRSCYEYEAEWLGLTQELHRKPVIPVGVLPPKPDEKFEDTDTWLSVKKWLDSRKSKSIVYVAFGSEAKPSQTELNEIALGLELSGLPFFWVLKTRRGPWDTEPVELPEGFEERTADRGMVWRGWVEQLRTLSHDSIGLVLTHPGWGTIIEAIRFAKPMAMLVFVYDQGLNARVIEEKKIGYMIPRDETEGFFTKESVANSLRLVMVEEEGKVYRENVKEMKGVFGDMDRQDRYVDSFLEYLVTNR	soluble
MSLEKKVVKFFTVDNMEKEEAYLNEMAQNGWFFQKYKSFRYHFKQGEPAKYSYAIDFKENEGDEDAYKTLFEDAGWETVFSYPVLNGNWMYFRKAVAPGETEEAIFTDETSLIQLYKNIRKREGHHHHHH	soluble
